One block for each molecule: values may come before it.
How the values were obtained:
[1] = target: T1, WsTR-I (Withania somnifera, UniProt U5PUZ1); experiment: spectrophotometric A340, NADPH oxidation; format: biochemical; conditions: forward reaction, MES-NaOH pH 6.7, 30°C, kcat per monomer, unit inferred from kcat/Km
T1 construct: His6-tagged (pET28a NdeI/BamHI), E. coli BL21 (DE3); Ni-NTA and gel filtration; homodimer about 60 kDa
Excerpt: (§1) spectrophotometric A340, NADPH oxidation on WsTR-I

[2] = target: T1, WsTR-I; experiment: spectrophotometric A340, NADP+ reduction; format: biochemical; conditions: reverse reaction; tropine; 30°C; printed kcat 0.54 (no unit) disagrees with printed kcat/Km
Excerpt: spectrophotometric A340, NADP+ reduction on WsTR-I

[3] = target: Withania somnifera tropine forming tropinone reductase (WsTR-I), recombinant His6-WsTR-I (Withania somnifera); experiment: SEC; calibrated Sephadex G-150 column (70.0 cm x 0.6 cm), 0.1 M MES-NaOH pH 6.7 with 0.1 M NaCl, 5 ml/h; markers ovalbumin, BSA, alcohol dehydrogenase; elution followed by catalytic activity; native mass about 60 kDa compared with the 29.41 kDa subunit
[4] = test system: CN1[C@@H]2CC[C@H]1CC(=O)C2; experiment: spectrophotometric A340, NADPH oxidation; format: biochemical, Withania somnifera; conditions: forward reaction, MES-NaOH pH 6.7, 30°C, kcat per monomer, unit inferred from kcat/Km
Excerpt: as §1

- Km ([1]; NADPH): 2110 µM
Molecule: CC1CCCC(=O)C1 (stereo not shown) [3-methyl-cyclohexanone]

- Km ([1]; tropinone): 0.43 µM
Molecule: NC(=O)C1=CN([C@@H]2O[C@H](COP(=O)(O)OP(=O)(O)OC[C@H]3O[C@@H](n4cnc5c(N)ncnc54)[C@H](OP(=O)(O)O)[C@@H]3O)[C@@H](O)[C@H]2O)C=CC1 [NADPH]

- Km [2]: 96.2 µM
Molecule: NC(=O)c1ccc[n+]([C@@H]2O[C@H](COP(=O)(O)OP(=O)(O)OC[C@H]3O[C@@H](n4cnc5c(N)ncnc54)[C@H](OP(=O)(O)O)[C@@H]3O)[C@@H](O)[C@H]2O)c1 [NADP^+]

- stoichiometry N [3]: 2
Molecule: Withania somnifera tropine forming tropinone reductase (WsTR-I), recombinant His6-WsTR-I (enzyme)

Molecule: WsTR-I (Withania somnifera)
- Km [4]: 1270 µM
- kcat [4]: 9.51 s⁻¹
- kcat/Km [4]: 7490 M⁻¹ s⁻¹
